From IntAct's records for PubMed 29039417

B1: BBSome complex member BBS4 (Homo sapiens), Q96RK4 (parent)
chain: MAEERVATRTQFPVSTESQKPRQKKAPEFPILEKQNWLIHLHYIRKDYEACKAVIKEQLQETQGLCEYAIYVQALIFRLEGNIQESLELFQTCAVLSPQSADNLKQVARSLFLLGKHKAAIEVYNEAAKLNQKDWEISHNLGVCYIYLKQFNKAQDQLHNALNLNRHDLTYIMLGKIHLLEGDLDKAIEVYKKAVEFSPENTELLTTLGLLYLQLGIYQKAFEHLGNALTYDPTNYKAILAAGSMMQTHGDFDVALTKYRVVACAVPESPPLWNNIGMCFFGKKKYVAAISCLKRANYLAPFDWKILYNLGLVHLTMQQYASAFHFLSAAINFQPKMGELYMLLAVALTNLEDIENAKRAYAEAVHLDKCNPLVNLNYAVLLYNQGEKKNALAQYQEMEKKVSLLKDNSSLEFDSEMVEMAQKLGAALQVGEALVWTKPVKDPKSKHQTTSTSKPASFQQPLGSNQALGQAMSSAAAYRTLPSGAGGTSQFTKPPSLPLEPEPAVESSPTETSEQIREK
partner: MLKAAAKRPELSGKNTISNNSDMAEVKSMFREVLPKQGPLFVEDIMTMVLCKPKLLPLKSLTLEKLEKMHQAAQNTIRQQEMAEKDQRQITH

Variants of: B1
Details: with bbip1_human BBIP1, A8MTZ0

Variant | effect of a mutation on the interaction
MAEERVATRTQFPVSTESQKPRQKKAPEFPILEKQNWLIHLHYIRKDYEACKAVIKEQLQETQGLCEYAIYVQALIFRLEGNIQESLELFQTCAVLSPQSADNLKQVARSLFLLGKHKAAIEVYNEAAKLNQKDWEISHNLGVCYIYLKQFNKAQDQLHNALNLNRHDLTYIMLGKIHLLEGDLDKAIEVYKKAVEFSPENTELLTTLGLLYLQLGIYQKAFEHLGNALTYDPTNYKAILAAGSMMQTHGDFDVALTKYRVVACAVPESPPLWNNIGMCFFGKKKYVAAISCLKRANYLAPFDWKILYNLGLVHLTMQQYASAFHFLSAAINFQPKMGELYMLLAVALTNLEDIENAKRAYAEAVHLDKCNPLVNLNYAVLLYNQGEKKNALAQYQEMEKKVSLLKDNSSLEFDEEMVEMAQKLGAALQVGEALVWTKPVKDPKSKHQTTSTSKPASFQQPLGSNQALGQAMSSAAAYRTLPSGAGGTSQFTKPPSLPLEPEPAVESSPTETSEQIREK [S415E] | with no effect
MAEERVATRTQFPVSTESQKPRQKKAPEFPILEKQNWLIHLHYIRKDYEACKAVIKEQLQETQGLCEYAIYVQALIFRLEGNIQESLELFQTCAVLSPQSADNLKQVARSLFLLGKHKAAIEVYNEAAKLNQKDWEISHNLGVCYIYLKQFNKAQDQLHNALNLNRHDLTYIMLGKIHLLEGDLDKAIEVYKKAVEFSPENTELLTTLGLLYLQLGIYQKAFEHLGNALTYDPTNYKAILAAGSMMQTHGDFDVALTKYRVVACAVPESPPLWNNIGMCFFGKKKYVAAISCLKRANYLAPFDWKILYNLGLVHLTMQQYASAFHFLSAAINFQPKMGELYMLLAVALTNLEDIENAKRAYAEAVHLDKCNPLVNLNYAVLLYNQGEKKNALAQYQEMEKKVSLLKDNSSLEFDAEMVEMAQKLGAALQVGEALVWTKPVKDPKSKHQTTSTSKPASFQQPLGSNQALGQAMSSAAAYRTLPSGAGGTSQFTKPPSLPLEPEPAVESSPTETSEQIREK [S415A] | with no effect
MAEERVATRTQFPVSTESQKPRQKKAPEFPILEKQNWLIHLHYIRKDYEACKAVIKEQLQETQGLCEYAIYVQALIFRLEGNIQESLELFQTCAVLSPQSADNLKQVARSLFLLGKHKAAIEVYNEAAKLNQKDWEISHNLGVCYIYLKQFNKAQDQLHNALNLNRHDLTYIMLGKIHLLEGDLDKAIEVYKKAVEFSPENTELLTTLGLLYLQLGIYQKAFEHLGNALTYDPTNYKAILAAGSMMQTHGDFDVALTKYRVVACAVPESPPLWNNIGMCFFGKKKYVAAISCLKRANYLAPFDWKILYNLGLVHLTMQQYASAFHFLSAAINFQPKMGELYMLLAVALTNLEDIENAKRAYAEAVHLDKCNPLVNLNYAVLLYNQGEKKNALAQYQEMEKKVSLLKDNSSLEFDKEMVEMAQKLGAALQVGEALVWTKPVKDPKSKHQTTSTSKPASFQQPLGSNQALGQAMSSAAAYRTLPSGAGGTSQFTKPPSLPLEPEPAVESSPTETSEQIREK [S415K] | with no effect
MAEERVATRTQFPVSTESQKPRQKKAPEFPILEKQNWLIHLHYIRKDYEACKAVIKEQLQETQGLCEYAIYVQALIFRLEGNIQESLELFQTCAVLSPQSADNLKQVARSLFLLGKHKAAIEVYNEAAKLNQKDWEISHNLGVCYIYLKQFNKAQDQLHNALNLNRHDLTYIMLGKIHLLEGDLDKAIEVYKKAVEFSPENTELLTTLGLLYLQLGIYQKAFEHLGNALTYDPTNYKAILAAGSMMQTHGDFDVALTKYRVVACAVPESPPLWNNIGMCFFGKKKYVAAISCLKRANYLAPFDWKILYNLGLVHLTMQQYASAFHFLSAAINFQPKMGELYMLLAVALTNLEDIENAKRAYAEAVHLDKCNPLVNLNYAVLLYNQGEKKNALAQYQEMEKKVSLLKDNSSLEFASEMVEMAQKLGAALQVGEALVWTKPVKDPKSKHQTTSTSKPASFQQPLGSNQALGQAMSSAAAYRTLPSGAGGTSQFTKPPSLPLEPEPAVESSPTETSEQIREK [D414A] | with no effect
MAEERVATRTQFPVSTESQKPRQKKAPEFPILEKQNWLIHLHYIRKDYEACKAVIKEQLQETQGLCEYAIYVQALIFRLEGNIQESLELFQTCAVLSPQSADNLKQVARSLFLLGKHKAAIEVYNEAAKLNQKDWEISHNLGVCYIYLKQFNKAQDQLHNALNLNRHDLTYIMLGKIHLLEGDLDKAIEVYKKAVEFSPENTELLTTLGLLYLQLGIYQKAFEHLGNALTYDPTNYKAILAAGSMMQTHGDFDVALTKYRVVACAVPESPPLWNNIGMCFFGKKKYVAAISCLKRANYLAPFDWKILYNLGLVHLTMQQYASAFHFLSAAINFQPKMGELYMLLAVALTNLEDIENAKRAYAEAVHLDKCNPLVNLNYAVLLYNQGEKKNALAQYQEMEKKVSLLKDNSSLEFKSEMVEMAQKLGAALQVGEALVWTKPVKDPKSKHQTTSTSKPASFQQPLGSNQALGQAMSSAAAYRTLPSGAGGTSQFTKPPSLPLEPEPAVESSPTETSEQIREK [D414K] | with no effect
MAEERVATRTQFPVSTESQKPRQKKAPEFPILEKQNWLIHLHYIRKDYEACKAVIKEQLQETQGLCEYAIYVQALIFRLEGNIQESLELFQTCAVLSPQSADNLKQVARSLFLLGKHKAAIEVYNEAAKLNQKDWEISHNLGVCYIYLKQFNKAQDQLHNALNLNRHDLTYIMLGKIHLLEGDLDKAIEVYKKAVEFSPENTELLTTLGLLYLQLGIYQKAFEHLGNALTYDPTNYKAILAAGSMMQTHGDFDVALTKYRVVACAVPESPPLWNNIGMCFFGKKKYVAAISCLKRANYLAPFDWKILYNLGLVHLTMQQYASAFHFLSAAINFQPKMGELYMLLAVALTNLEDIENAKRAYAEAVHLDKCNPLVNLNYAVLLYNQGEKKNALAQYQEMEKKVSLLKDNSSLEFESEMVEMAQKLGAALQVGEALVWTKPVKDPKSKHQTTSTSKPASFQQPLGSNQALGQAMSSAAAYRTLPSGAGGTSQFTKPPSLPLEPEPAVESSPTETSEQIREK [D414E] | with no effect
MAEERVATRTQFPVSTESQKPRQKKAPEFPILEKQNWLIHLHYIRKDYEACKAVIKEQLQETQGLCEYAIYVQALIFRLEGNIQESLELFQTCAVLSPQSADNLKQVARSLFLLGKHKAAIEVYNEAAKLNQKDWEISHNLGVCYIYLKQFNKAQDQLHNALNLNRHDLTYIMLGKIHLLEGDLDKAIEVYKKAVEFSPENTELLTTLGLLYLQLGIYQKAFEHLGNALTYDPTNYKAILAAGSMMQTHGDFDVALTKYRVVACAVPESPPLWNNIGMCFFGKKKYVAAISCLKRANYLAPFDWKILYNLGLVHLTMQQYASAFHFLSAAINFQPKMGELYMLLAVALTNLEDIENAKRAYAEAVHLDKCNPLVNLNYAVLLYNQGEKKNALAQYQEMEKKVSLLKDNSSLEFDSEEVEMAQKLGAALQVGEALVWTKPVKDPKSKHQTTSTSKPASFQQPLGSNQALGQAMSSAAAYRTLPSGAGGTSQFTKPPSLPLEPEPAVESSPTETSEQIREK [M417E] | with no effect
MAEERVATRTQFPVSTESQKPRQKKAPEFPILEKQNWLIHLHYIRKDYEACKAVIKEQLQETQGLCEYAIYVQALIFRLEGNIQESLELFQTCAVLSPQSADNLKQVARSLFLLGKHKAAIEVYNEAAKLNQKDWEISHNLGVCYIYLKQFNKAQDQLHNALNLNRHDLTYIMLGKIHLLEGDLDKAIEVYKKAVEFSPENTELLTTLGLLYLQLGIYQKAFEHLGNALTYDPTNYKAILAAGSMMQTHGDFDVALTKYRVVACAVPESPPLWNNIGMCFFGKKKYVAAISCLKRANYLAPFDWKILYNLGLVHLTMQQYASAFHFLSAAINFQPKMGELYMLLAVALTNLEDIENAKRAYAEAVHLDKCNPLVNLNYAVLLYNQGEKKNALAQYQEMEKKVSLLKDNSSLEFDSEAVEMAQKLGAALQVGEALVWTKPVKDPKSKHQTTSTSKPASFQQPLGSNQALGQAMSSAAAYRTLPSGAGGTSQFTKPPSLPLEPEPAVESSPTETSEQIREK [M417A] | with no effect
MAEERVATRTQFPVSTESQKPRQKKAPEFPILEKQNWLIHLHYIRKDYEACKAVIKEQLQETQGLCEYAIYVQALIFRLEGNIQESLELFQTCAVLSPQSADNLKQVARSLFLLGKHKAAIEVYNEAAKLNQKDWEISHNLGVCYIYLKQFNKAQDQLHNALNLNRHDLTYIMLGKIHLLEGDLDKAIEVYKKAVEFSPENTELLTTLGLLYLQLGIYQKAFEHLGNALTYDPTNYKAILAAGSMMQTHGDFDVALTKYRVVACAVPESPPLWNNIGMCFFGKKKYVAAISCLKRANYLAPFDWKILYNLGLVHLTMQQYASAFHFLSAAINFQPKMGELYMLLAVALTNLEDIENAKRAYAEAVHLDKCNPLVNLNYAVLLYNQGEKKNALAQYQEMEKKVSLLKDNSSLEEDSEMVEMAQKLGAALQVGEALVWTKPVKDPKSKHQTTSTSKPASFQQPLGSNQALGQAMSSAAAYRTLPSGAGGTSQFTKPPSLPLEPEPAVESSPTETSEQIREK [F413E] | with no effect
MAEERVATRTQFPVSTESQKPRQKKAPEFPILEKQNWLIHLHYIRKDYEACKAVIKEQLQETQGLCEYAIYVQALIFRLEGNIQESLELFQTCAVLSPQSADNLKQVARSLFLLGKHKAAIEVYNEAAKLNQKDWEISHNLGVCYIYLKQFNKAQDQLHNALNLNRHDLTYIMLGKIHLLEGDLDKAIEVYKKAVEFSPENTELLTTLGLLYLQLGIYQKAFEHLGNALTYDPTNYKAILAAGSMMQTHGDFDVALTKYRVVACAVPESPPLWNNIGMCFFGKKKYVAAISCLKRANYLAPFDWKILYNLGLVHLTMQQYASAFHFLSAAINFQPKMGELYMLLAVALTNLEDIENAKRAYAEAVHLDKCNPLVNLNYAVLLYNQGEKKNALAQYQEMEKKVSLLKDNSSLEKDSEMVEMAQKLGAALQVGEALVWTKPVKDPKSKHQTTSTSKPASFQQPLGSNQALGQAMSSAAAYRTLPSGAGGTSQFTKPPSLPLEPEPAVESSPTETSEQIREK [F413K] | with no effect
MAEERVATRTQFPVSTESQKPRQKKAPEFPILEKQNWLIHLHYIRKDYEACKAVIKEQLQETQGLCEYAIYVQALIFRLEGNIQESLELFQTCAVLSPQSADNLKQVARSLFLLGKHKAAIEVYNEAAKLNQKDWEISHNLGVCYIYLKQFNKAQDQLHNALNLNRHDLTYIMLGKIHLLEGDLDKAIEVYKKAVEFSPENTELLTTLGLLYLQLGIYQKAFEHLGNALTYDPTNYKAILAAGSMMQTHGDFDVALTKYRVVACAVPESPPLWNNIGMCFFGKKKYVAAISCLKRANYLAPFDWKILYNLGLVHLTMQQYASAFHFLSAAINFQPKMGELYMLLAVALTNLEDIENAKRAYAEAVHLDKCNPLVNLNYAVLLYNQGEKKNALAQYQEMEKKVSLLKDNSSLEFDSAMVEMAQKLGAALQVGEALVWTKPVKDPKSKHQTTSTSKPASFQQPLGSNQALGQAMSSAAAYRTLPSGAGGTSQFTKPPSLPLEPEPAVESSPTETSEQIREK [E416A] | with no effect
MAEERVATRTQFPVSTESQKPRQKKAPEFPILEKQNWLIHLHYIRKDYEACKAVIKEQLQETQGLCEYAIYVQALIFRLEGNIQESLELFQTCAVLSPQSADNLKQVARSLFLLGKHKAAIEVYNEAAKLNQKDWEISHNLGVCYIYLKQFNKAQDQLHNALNLNRHDLTYIMLGKIHLLEGDLDKAIEVYKKAVEFSPENTELLTTLGLLYLQLGIYQKAFEHLGNALTYDPTNYKAILAAGSMMQTHGDFDVALTKYRVVACAVPESPPLWNNIGMCFFGKKKYVAAISCLKRANYLAPFDWKILYNLGLVHLTMQQYASAFHFLSAAINFQPKMGELYMLLAVALTNLEDIENAKRAYAEAVHLDKCNPLVNLNYAVLLYNQGEKKNALAQYQEMEKKVSLLKDNSSLEFDSKMVEMAQKLGAALQVGEALVWTKPVKDPKSKHQTTSTSKPASFQQPLGSNQALGQAMSSAAAYRTLPSGAGGTSQFTKPPSLPLEPEPAVESSPTETSEQIREK [E416K] | with no effect
